Values quoted from earlier work as cited in publication PMC10578080.
pKd: −log10 of the molar value.

Target: neuronal ternary SNARE complex (Rattus norvegicus) (UniProt P32851)
Chain of UniProt P32851 (P32851 whole entry, chain 1 of 3): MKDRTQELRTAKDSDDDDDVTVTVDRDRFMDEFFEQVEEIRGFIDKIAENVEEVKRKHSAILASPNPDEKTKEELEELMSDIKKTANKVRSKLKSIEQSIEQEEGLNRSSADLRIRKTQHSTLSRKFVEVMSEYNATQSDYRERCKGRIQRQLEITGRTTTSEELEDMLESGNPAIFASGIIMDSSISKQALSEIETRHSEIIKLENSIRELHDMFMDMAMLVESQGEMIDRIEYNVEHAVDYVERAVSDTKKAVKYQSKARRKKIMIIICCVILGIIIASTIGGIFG
Chain of UniProt P32851 (B2RAU4 whole entry, chain 2 of 3, further chain): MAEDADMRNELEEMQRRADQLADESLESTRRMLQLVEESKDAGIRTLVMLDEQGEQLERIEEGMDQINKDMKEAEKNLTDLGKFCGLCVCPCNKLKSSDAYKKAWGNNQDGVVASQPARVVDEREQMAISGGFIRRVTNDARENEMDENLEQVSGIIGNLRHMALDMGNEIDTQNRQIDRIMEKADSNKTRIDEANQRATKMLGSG
Chain of UniProt P32851 (P63044 2-116, chain 3 of 3, further chain): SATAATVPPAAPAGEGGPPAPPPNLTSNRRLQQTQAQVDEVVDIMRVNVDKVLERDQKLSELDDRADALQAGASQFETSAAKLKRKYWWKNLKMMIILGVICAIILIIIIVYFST

## Cpx1 central domain (from UniProt P63041)
  pKd: 8.00
